Assay results reported in paper PMC11173052, “The Development of Robust Antibodies to Sarcospan, a Dystrophin- and Integrin-Associated Protein, for Basic and Translational Research” (International Journal of Molecular Sciences, 2024).

B1: mouse sarcospan (mSSPN) (natural protein, UniProt Q62147 1-216, looked up)
chain: MGRKPSPRAQELPEEEARTCCGCRFPLLLALLQLALGIAVTVLGFLMASISPSLLVRDTPFWAGSIVCVVAYLGLFMLCVSYQVDERTCVQFSMKVFYFLLSALGLMVCMLAVAFAAHHYSLLAQFTCETSLDSCQCKLPSSEPLSRAFVYRDVTDCTSVTGTFKLFLIIQMVLNLVCGLVCLLACFVMWKHRYQVFYVGVGLRSLMASDGQLPKA
notes: sarcospan, mouse, GenBank U02487; 25-kDa protein with four transmembrane domains; seen as monomer and as a dimer band on reducing SDS-PAGE of immunoprecipitates; also called mouse SSPN; murine SSPN; source: endogenous (wild type) or transgenic overexpression (mSSPN-TG, Ln28), mouse quadriceps muscle lysate
B2: human sarcospan (hSSPN) (natural protein, UniProt Q14714 1-243, looked up)
chain: MGKNKQPRGQQRQGGPPAADAAGPDDMEPKKGTGAPKECGEEEPRTCCGCRFPLLLALLQLALGIAVTVVGFLMASISSSLLVRDTPFWAGIIVCLVAYLGLFMLCVSYQVDERTCIQFSMKLLYFLLSALGLTVCVLAVAFAAHHYSQLTQFTCETTLDSCQCKLPSSEPLSRTFVYRDVTDCTSVTGTFKLFLLIQMILNLVCGLVCLLACFVMWKHRYQVFYVGVRICSLTASEGPQQKI
notes: sarcospan, human, GenBank AF016028; hSSPN-TG muscle also holds endogenous mouse SSPN; also called human SSPN; source: transgenic overexpression in mouse skeletal muscle (hSSPN-TG, Ln3), quadriceps muscle lysate

Molecular target: the molecule itself
Assay: oligomer bands on immunoblot of immunoprecipitated protein (reducing SDS-PAGE); quadriceps lysates (50 mM Tris, 150 mM NaCl, 1% NP-40, pH 7.4) of hSSPN-TG, mSSPN-TG, WT and SSPN-null mice immunoprecipitated with anti-SSPN monoclonal antibodies on protein A/G PLUS-agarose; eluates resolved by SDS-PAGE under reducing conditions and blotted with E2 or 10B8

Protein	stoichiometry N
B1	2
B2	2
